Experimental data taken from patent US20260234242A1 (HAINAN SIMCERE ZAIMING PHARMACEUTICAL, published 2026).

Columns and labels:
[1] = molecular target: T1, monkey CDH6 protein (cynoCDH6 ECD-his) (monkey (cyno), UniProt A0A2K5TW62 19-615); assay: ELISA, coated antigen
T1 construct: range 19-615; also called Cyno CDH6-his; not shown: his tag
T1 sequence: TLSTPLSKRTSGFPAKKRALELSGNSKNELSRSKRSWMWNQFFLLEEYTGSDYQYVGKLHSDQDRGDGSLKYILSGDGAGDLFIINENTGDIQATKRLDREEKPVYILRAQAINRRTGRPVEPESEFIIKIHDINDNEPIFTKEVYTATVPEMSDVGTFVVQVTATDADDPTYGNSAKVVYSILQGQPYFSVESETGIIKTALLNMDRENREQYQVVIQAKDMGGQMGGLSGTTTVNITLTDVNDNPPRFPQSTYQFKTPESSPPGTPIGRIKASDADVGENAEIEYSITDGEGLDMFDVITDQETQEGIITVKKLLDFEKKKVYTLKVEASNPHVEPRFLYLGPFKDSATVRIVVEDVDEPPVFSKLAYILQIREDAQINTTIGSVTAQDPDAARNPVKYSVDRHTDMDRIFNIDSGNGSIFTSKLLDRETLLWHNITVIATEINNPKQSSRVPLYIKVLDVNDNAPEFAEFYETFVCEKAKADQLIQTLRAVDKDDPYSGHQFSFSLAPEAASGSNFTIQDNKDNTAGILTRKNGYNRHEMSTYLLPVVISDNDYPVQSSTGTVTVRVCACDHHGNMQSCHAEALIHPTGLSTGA
Protocol: Human CDH6 protein (hCDH6 ECD-his, conventionally synthesized), monkey CDH6 protein (cynoCDH6 ECD-his, conventionally synthesized; the cynoCDH6 ECD sequence was derived from Uniprot #A0A2K5TW62 (19-615)), and murine CDH6 protein (mCDH6 ECD-his, conventionally synthesized; the mCDH6 ECD sequence was derived from Uniprot #P97326 (19-615)) were diluted with PBS to a final concentration of 1 μg/mL, and added to a 96-well ELISA plate at 100 μL/well. The plate was incubated at 4° C. overnight. The next day, the plate was washed 3 times with a plate washing solution (PBS+0.01% (v/v) Tween 20), and a blocking buffer (PBS+0.01% (v/v) Tween 20+2% (w/w) BSA) was added for blocking at room temperature for 2 h. The blocking buffer was discarded, and the plate was washed 3 times. The chimeric antibodies were diluted with 1% BSA+PBS (purchased from Cytiva, Cat. No. SH30264.01) and added to the 96-well plate at 50 μL/well. After incubation at 37° C. for 2 h, the plate was washed 3 times with a plate washing solution. […] The plate was incubated at 37° C. for 1 h and then washed 5 times with a plate washing solution. A TMB substrate (purchased from Seracare, Cat. No. 5120-0077) was added at 50 μL/well and incubated at room temperature for 10 min, then a stop solution (1.0 N HCl) was added at 50 μL/well. OD450 nm values were read using a microplate reader (Biotek). Analysis was performed by the GraphPad Prism software, data were fitted, and EC50 values were calculated. The chimeric antibodies tested all had strong binding to the human CDH6 protein, the monkey CDH6 protein, and the murine CDH6 protein.

[2] = molecular target: T2, human CDH6 with EC1 removed, on HEK293T cells (HEK293T-hCDH6-EC1 deletion) (human, UniProt P55285 160-790); assay: FACS, HEK293T-hCDH6-EC1 deletion cells
T2 construct: Signal peptide not removed here
T2 sequence: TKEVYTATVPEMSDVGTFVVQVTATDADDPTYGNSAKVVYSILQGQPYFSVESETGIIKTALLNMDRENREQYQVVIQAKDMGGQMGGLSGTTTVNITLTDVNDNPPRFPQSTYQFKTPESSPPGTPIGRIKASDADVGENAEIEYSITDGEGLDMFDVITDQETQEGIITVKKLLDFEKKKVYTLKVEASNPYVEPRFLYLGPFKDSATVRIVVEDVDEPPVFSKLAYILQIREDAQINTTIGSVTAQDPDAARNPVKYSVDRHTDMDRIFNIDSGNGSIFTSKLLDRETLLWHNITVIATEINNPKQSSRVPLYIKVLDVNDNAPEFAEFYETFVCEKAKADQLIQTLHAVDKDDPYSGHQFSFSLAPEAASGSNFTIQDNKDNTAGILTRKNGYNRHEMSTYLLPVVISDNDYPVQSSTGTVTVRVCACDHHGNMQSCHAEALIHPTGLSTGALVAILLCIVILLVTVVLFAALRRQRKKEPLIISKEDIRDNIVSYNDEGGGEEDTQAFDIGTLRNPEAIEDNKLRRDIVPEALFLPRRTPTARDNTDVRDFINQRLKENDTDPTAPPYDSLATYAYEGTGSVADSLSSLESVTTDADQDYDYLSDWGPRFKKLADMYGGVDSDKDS

[3] = molecular target: T3, human CDH6 with EC4 removed, on HEK293T cells (HEK293T-hCDH6-EC4 deletion) (human, UniProt P55285 54-790); assay: FACS, HEK293T-hCDH6-EC4 deletion cells
T3 construct: Signal peptide not removed here
T3 sequence: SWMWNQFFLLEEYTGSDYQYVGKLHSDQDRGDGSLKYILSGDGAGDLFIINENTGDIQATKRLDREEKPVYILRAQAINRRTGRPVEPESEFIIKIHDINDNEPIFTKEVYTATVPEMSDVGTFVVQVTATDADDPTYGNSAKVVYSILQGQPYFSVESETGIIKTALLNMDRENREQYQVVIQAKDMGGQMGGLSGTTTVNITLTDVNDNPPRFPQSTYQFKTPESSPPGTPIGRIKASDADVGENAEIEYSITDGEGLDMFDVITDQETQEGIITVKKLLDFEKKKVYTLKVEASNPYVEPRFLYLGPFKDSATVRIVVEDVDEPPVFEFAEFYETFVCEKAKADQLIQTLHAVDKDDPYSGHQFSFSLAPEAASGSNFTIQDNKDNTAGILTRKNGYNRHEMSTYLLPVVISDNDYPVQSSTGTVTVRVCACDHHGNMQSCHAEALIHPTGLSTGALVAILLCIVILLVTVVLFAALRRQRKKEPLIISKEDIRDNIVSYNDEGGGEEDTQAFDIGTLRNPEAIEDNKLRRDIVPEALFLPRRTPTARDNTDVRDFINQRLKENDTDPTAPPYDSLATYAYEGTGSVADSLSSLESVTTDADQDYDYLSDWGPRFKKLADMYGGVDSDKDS
Source text: To confirm the binding epitope of the CDH6 antibody, the sequences after removal of these 5 regions were constructed into pcDNA3.1 vectors (purchased from Youbio, Cat. No. VT1001), and transfected into HEK293T cells (purchased from Cell Bank of Chinese Academy of Sciences, Cat. No. SCSP-502) to obtain 5 CDH6 truncated cell lines: HEK293T-hCDH6-EC1 deletion, HEK293T-hCDH6-EC2 deletion, HEK293T-hCDH6-EC3 deletion, HEK293T-hCDH6-EC4 deletion, and HEK293T-hCDH6-EC5 deletion.
The binding activity of the CDH6 chimeric antibodies to these 5 cell lines was assayed by FACS.

Binder	EC50 [1] [nM]	Max OD450 [1] [OD450]	Max MFI [2] [MFI]	Max MFI [3] [MFI]
CHI-CDH6-12 (antibody, human IgG1, kappa, V domains shown, also called CH1-CDH6-12; chimeric antibody of murine CDH6-12) VH: EVNLVESGGGLVQPGDSLTLSCSASGFTFTDYYMSWVRQFPGKALEWLALIRNKANSYTTEYSASVKGRFTISRDNSQSILYLQMNALRAEDSATYYCARDSYYSHDGFAYWGQGTLVTVSA VL: DIVLTQSPASLAVSLGQRATISCRASKSVSTSSYTYMHWYQQKPGQPPKLLIKFASYLESGVPARFSGSGSGTDFTLNIHPVEEEDAATYYCQHSREFPFTFGTGTKLEIKR	0.044	2.45	9860	16600
DS-H01L02 (antibody, human IgG1, kappa, V domains shown, Positive control, variable regions from WO2018212136A1; also called positive control anti-human CDH6 antibody) VH: EVQLVQSGAEVKKPGASVKVSCKASGYTFTRNFMHWVRQAPGQGLEWMGWIYPGDGETEYAQKFQGRVTITADTSTSTAYMELSSLRSEDTAVYYCARGVYGGFAGGYFDFWGQGTLVTVSS VL: DIQMTQSPSSLSASVGDRVTITCKASQNIYKNLAWYQQKPGKAPKLLIYDANTLQTGVPSRFSGSGSGSDFTLTISSLQPEDFATYFCQQYYSGWAFGQGTKVEIKR	0.103	2.18	5290	11800
CHI-CDH6-7 (antibody, human IgG1, kappa, V domains shown, also called CH1-CDH6-7; chimeric antibody of murine CDH6-7) VH: EVKLVESGGGLVKPGGSLKVSCAASGFTFSDHGMAWVRQAPGKGPEWVAFISNLAYSIYYADTVTGRFTISRENAKNTLYLEMSSLRSEDTAMYYCARVYVKWYFDVWGAGTTVTVSS VL: DIQMTQSPASLSASVGETVTITCRASENIDSYLAWYQQKQGKSPQLLVFAATLLADGVPSRFSGSGSGTQYSLKINSLQSEDVARYYCQHYYSTPLTFGAGTKLELKR	0.178	2.05	88	17400
CHI-CDH6-5 (antibody, human IgG1, kappa, V domains shown, also called CH1-CDH6-5; chimeric antibody of murine CDH6-5) VH: QVQLQQSGAELVRPGTSVKMSCKAAEYTFTNYWIGWVKQRPGHGLEWIGDLYPGGDHANYNEKFEGKATLTADTSSSTAYMQLSSLTSEDSAIYYCARGMLTTGFDSWGQGTTLTVSS VL: DIVMSQSPSSLAVSAGEKVTMSCKSSQSLFNSRTRKNYLAWYQQKPGQSPKLLIYWASTRESGVPDRFTGSGSGTDFTLTISSVQAEDLAVYYCKQSYYLRTFGGGTKLEIKR	0.046	1.96	112	18700
NOV0712 (antibody, human IgG1, kappa, V domains shown, Positive control, variable regions from WO2018212136A1; also called positive control anti-human CDH6 antibody) VH: QVQLLESGGGLVQPGGSLRLSCAASGFTFSSHGMHWVRQAPGKGLEWVSVISGSGSNTGYADSVKGRFTISRDNSKNTLYLQMNSLRAEDTAVYYCARQWGSYAFDSWGQGTLVTVSS VL: DIQMTQSPSSLSASVGDRVTITCRASQSISSYLNWYQQKPGKAPKLLIYAVSTLQSGVPSRFSGSGSGTDFTLTISSLQPEDFATYYCQQSGTFPPTTFGQGTKVEIKR	0.039	2.44	23600	20600
CHI-CDH6-14 (antibody, human IgG1, kappa, V domains shown, also called CHI-hCDH6-14; CH1-CDH6-14) VH: QIQLQQSGPELVKPGTSVKISCKASGYTFTDNYINWVRQRPGQGLEWIGWIYPGTGNSYYNEKFKGKATLTVDTSSSTAYMQFSSLTSEDSAVYLCASSYGDSFDYWGQGTTLTVSS VL: DIQMTQTTSSLSASLGNRVTISCRASQDIRNYLNWYQQKPDGTFKLLISYTSRLHSGVPSRFSGSGSGTDYSLTVSNLEPEDIATYYCQQYSQLPWTFGGGSRLEIKR	0.039	2.55	7210	26600
